Experiment: yeast display, Sf9 membrane polyspecificity reagent, FACS + sequencing; frameworks hold sequencing errors
How it was run: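 Sorting gates, low and high (top ~1%), were placed on anti-HA fluorescence to track expression and on streptavidin fluorescence to track reagent binding. A clone's polyreactivity label is taken from the gate it came out of. The reagent was 10% biotinylated, detergent-solubilized Sf9 membrane, applied for 1 hour at 4 °C to galactose-induced yeast display cells.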

| Sequence | polyreactivity (PSR sort gate) |
| --- | --- |
| QVQLVESGGGLVQAGGSLRLSCAASGSIFYYYPMGWYRQAPGKERELVAAINSVGSTYADSVKGRFTISRDNAKNTVYLQMNSLKPEDSAVYYCENYYWGQGTQVTVSS | low polyreactivity |
| QVQLVESGGGLVQAGGSLRLSCAASGSIFYYYTMGWYRQAPGKERELVAAINSGGNTYYADSVKGRFTISRDNAKNTVYLQMNSLKPEDTAVYYCAAGPLYYDYDYWGQGTQVTVSS | low polyreactivity |
| QVQLVESGGGLVQAGGSLRLSCAASGSIFYYYTMGWYRQSPGKERELVAAIRWSSGTTYYADSVKGRFTISRDKAKNTVYLQINSLKPEDTAVYYCAAGGHARTWYAYYYWGQGTQVTVSS | low polyreactivity |
| QVQLVESGGGLVQAGGSLRLSCAASGSIFYYYVRGWYRQAPGKEREFVAAISWGGDSTYYADSVKGRFTISRDNAKNTFYLQMNSLQPEDTAVYYCNADYPWSVVGYDYWAQGTQVTVSS | low polyreactivity |
| QVQLVESGGGLVQAGGSLRLSCAASGSIHSLYTMGWYRQAPGKERELVARISRSGGSTYYADSVKGRFTISRDYAKNTVYLQMNSLKPEDTAVYYCADERKNKYDYWGQGTQVTVSS | high polyreactivity |
| QVQLVESGGGLVQAGGSLRLSCAASGSIIDLYAMGWYRQAPGKERELVAAISFSGGSTYYADSVKGRFTISRDNAKNTVYLQMNSLKPEDTAVYYCAKDVRRTLRFRAFDYWGQGTQVSVSS | low polyreactivity |
| QVQLVESGGGLVQAGGSLRLSCAASGSIIFRYAMGWSRQAPGKERELVARISWGGGRTYYADSVKGRFTISRDNAQNTVYLQMNSLKPEDSAVYYCNRAFWVNPGGFDYWGQGTQVTVSS | high polyreactivity |
| QVQLVESGGGLVQAGGSLRLSCAASGSIIFYYAMGWYRQAPGKERDFVAGITYSGGITYYADSVKGRFTISRDNAKNTVYLQMNSMKPEDTAVYFCDYGGGVYQYGYWGQGTQVTVSS | low polyreactivity |
| QVQLVESGGGLVQAGGSLRLSCAASGSIIGDNTMGWYRPAPGKERELVAAISSSGSTYYADSVKGRFTISRDNAKNTVYLQMNSLKPEDTAVYYCAAYDYGHVEYGYWGQGSQVTVSS | low polyreactivity |
| QVQLVESGGGLVQAGGSLRLSCAASGSIIGRYTMGWYRQAPGKERELVAAISRSGGSTYYADSVKGRFTISRDNAKNTVYLQMNSLKPEDTAVYYCAARYRAKRRYYYWGQGTQVTVSS | high polyreactivity |
| QVQLVESGGGLVQAGGSLRLSCAASGSIIGVNAMGWYRQAPGKERELVAAISSTGGSTYYADSVKGRFTISRDNAKNTVYLQMNSLKPEDTAVYYCNTDYSKSIGDGYAGFDYWGQGTQVTVSS | low polyreactivity |
| QVQLVESGGGLVQAGGSLRLSCAASGSIIGYYTMGWYRQAPGKEREFVAAISWSGGSTYYADSVKGRFTISRDNAKNTVYLQMNSLKPEDTAVYYCNADVYWEYDYCGQGTQVTVSS | low polyreactivity |
| QVQLVESGGGLVQAGGSLRLSCAASGSIIKWYAMGWYRQAPGKERELVAAISASGGSTYYADSVKGRFTISRDNAKHTVYLQMNSLKPEDTAVYYCNTDHYYSSRHYDYWGQGTQVTVSS | low polyreactivity |
| QVQLVESGGGLVQAGGSLRLSCAASGSIILHNAMGWYRQAPGKERELVAGITGSGGSTYYADSVKGRFTISRDNAMNTVYLQMNSLKPEDTAVYYCAAGSRSRYYRYVYYKYVTMDYWGQGTQVTVSS | high polyreactivity |
| QVQLVESGGGLVQAGGSLRLSCAASGSIILHYAMGRYRHAPRKERELVAVIRGGGSTNYADSVKGRFTISRDNAKNSVYLQMNSLKPEDSAVYYCAADYEAYRYDFWGQGTQVTVSS | high polyreactivity |
| QVQLVESGGGLVQAGGSLRLSCAASGSIINAYAMGWYRPAPGKERELVAAINSGGTTYYADSVKGRFTISRDNAKNTVYLQMISLKPEDTAVYYCNAVSKWAIYDYWGQGTQVTVSS | high polyreactivity |
| QVQLVESGGGLVQAGGSLRLSCAASGSIISYYAMGWYRQAPGKERELVAAISWSGGSTYYADSVKGRFTISRDNAKNTVYLQMNSLKPEDTAVYYCNTVRRLKRYSSYGHDYWGQGTQVTVSS | high polyreactivity |
| QVQLVESGGGLVQAGGSLRLSCAASGSIITGYAMGWYRQAPGKERELVAAITGNAGSTYYADSVKGRFTISRDNAKNTVYLQMNSLKPEDTAVYYCNARSWYVRVDYWGQGTQVTVSS | low polyreactivity |
| QVQLVESGGGLVQAGGSLRLSCAASGSIIVLNAMGWYRQAPGKERELVAAITSGGSTYYADSVKGRFTISRDNAKNTVYLQMNSLKPEDTAVYYCNALDLSPSYKYDYWGQGTQVTVSS | low polyreactivity |
| QVQLVESGGGLVQAGGSLRLSCAASGSIIVWNAMGWYRQAPGKERELVAAITWSGVTTYYADSVKGRFTISRDNAKNTVYLQMNSLKPEDTAVYYCAAGRTRRKFDYWGQGTQVTVSS | low polyreactivity |
| QVQLVESGGGLVQAGGSLRLSCAASGSIIVYNTMGWYRQAPGKERGLVAAITVRDDSTYYADSVKGRFTISRDNAKNTVYLQMNSLKPEDTAVYYCNVRKTWYGYSVTGRYDYWGQGTEVTVSS | low polyreactivity |
| QVQLVESGGGLVQAGGSLRLSCAASGSIIYRYVMGWYRQAPGKERESVAAISWRGTNTYADSVKGRFTISRDNAKNTVYLQMNSLKPEDTAVYYCAARKWDRYRDFEYWGQGTQVTVSS | high polyreactivity |

| Sequence | polyreactivity (PSR sort gate) |
| --- | --- |
| QVQLVESGGGLVQAGGSLRLSCAASGSIIYTNAMGRYRQAPGKEREVVAAITGTTTTNYADSVKGRFTISRDNAKNTVYVQMNSLKPEDTAVYYCNADYDRSRVYYSVELYDYWGQGTQVTVSS | low polyreactivity |
| QVQLVESGGGLVQAGGSLRLSCAASGSIIYWYAMGWYRQAPGKERELVADISRGGITYYADSVKGRFTISRDNAKNTVYLQMNSLKPEDTAVYYCSKTHYGVQRLDSWGQGTQVTVSS | low polyreactivity |
| QVQLVESGGGLVQAGGSLRLSCAASGSIIYYNAMGWYRQAPAKERELVAAITGSGGSTYYADSVKGRFTISRDNAINTVYLQMNSLKPEDTAVYDCAADYSLYGWWFRNDYWGQGTQVTVSS | low polyreactivity |
| QVQLVESGGGLVQAGGSLRLSCAASGSIIYYYAMGWYRQAPGKERELVAAISASGGRTYYADSVKGRFTISRDNAKNTVYLQMNSLKPEDTAVYYCAKRGTLGSYYYWGQGTQVTVSS | high polyreactivity |
| QVQLVESGGGLVQAGGSLRLSCAASGSIKDNVMGWYRQAPGKERELVAAITRSAGRTYYADSVMGRFTISRDNEKNTVYLQMNSLKPEDTAVYYCASQAERYGYEYWGQGTQVTVSS | low polyreactivity |
| QVQLVESGGGLVQAGGSLRLSCAASGSILAANAMGWYRQAPGKERELVAAIDWTGGDTYYADSVKGRFTISRDNAKNTVYLQMNSLKPEDTAVYYCAAEFVWPSIAYDVEYDYWGQGTQVTVSS | low polyreactivity |
| QVQLVESGGGLVQAGGSLRLSCAASGSILAGNVMGWYRQAPGKERELVAAITGSGGITYYADSVKGRFTISRDNAKNTVYLQMNSLKPEDTAVYYCNAVPDTRSGELDYWGQGTQVTVSS | low polyreactivity |
| QVQLVESGGGLVQAGGSLRLSCAASGSILAVNAMGWYRQAPGKERELVAAISSRGGSTSYADSVKGRFTISRDNAKNTVYLQMNSLKPEDTAVYYCAVRAVRRLRTSVPVRFYYWGQGTQVTVSS | high polyreactivity |
| QVQLVESGGGLVQAGGSLRLSCAASGSILDSNAMGWYRPAPGKERELVAAITSGGSTYYADSVKGRFTISRDNAKNTVYLQMNSLKPEDTAVYYCAAAYLGYGAVQPSYEGGYWGQGTQVTVSS | low polyreactivity |
| QVQLVESGGGLVQAGGSLRLSCAASGSILFYAMGWYRQAHGKERELVAAITWRGGSTFYADSVKGRFTISRDNAKNTVYLQMNSLKPDDTAVYYCAASYYRYGHRSRGRYYYWGQGTQVTVSS | high polyreactivity |
| QVQLVESGGGLVQAGGSLRLSCAASGSILGDYAMGWDRQAPGKEREFVAAIDGSDGSTYYADSVKGRFTISRDNAKNTVYLQMNILKPEDTEVYYCAATDYDTYRSSWYVYWGQCTQVTVSS | low polyreactivity |
| QVQLVESGGGLVQAGGSLRLSCAASGSILGINVMGWYRQAPGKERELVAAISWRVGRTYYADSVKGRFTISRDNAKKTDDLQMNSLKPEDTAVYYCNVDRWGNIPVGDYDYWGQGTEVTVSS | high polyreactivity |
| QVQLVESGGGLVQAGGSLRLSCAASGSILGLYAMGWYRQAPGKERELVAAISSGGSTYYADSVKGRFTISRDNAKNTVYLQMNSLKPEDSAVYYCAADLSWSRVVFGDYDYWGQGTQVTVSS | low polyreactivity |
| QVQLVESGGGLVQAGGSLRLSCAASGSILGRYAMGWYRQAPGKERELVAAITNRGGSTYYADSVNGRFTISRDNAKNTVYLQMNSLKPEDTAVYYCAAPYSAKELYYRMDYWGQGTQVTVSS | high polyreactivity |
| QVQLVESGGGLVQAGGSLRLSCAASGSILGTYAMGWTIQAPGKERELVAAISSSGRTSYADSEKGRFTISRDNAKNTVYLQMNSLKPEDTAVYYCNASNYIVLINDPDAAPWLYDYWGQVTQVTVSS | low polyreactivity |
| QVQLVESGGGLVQAGGSLRLSCAASGSILGTYAMGWYRQAPGKERELVAAITLSTDGTYYADSVKGRFTISRDNAKNTVYLQMNSLKPEDTAVDYCAAPWNWRWVTQWGYYVRADYFWGQGTQVTVSS | low polyreactivity |
| QVQLVESGGGLVQAGGSLRLSCAASGSILGYYAMGWYRQAPGKERELVAAISSGGSTNYADSVKGRFTISRDNAKNTVYLQMNSLKPEDTAVYYCAADRTYHGGFDYWGQGTQVTVSS | low polyreactivity |
| QVQLVESGGGLVQAGGSLRLSCAASGSILGYYAMGWYRQAPGKERELVADIDNGTSTYYADSVKGRFTISRDNANNTVYLQMISLKPEDTAVYYCADEYYSRYFQSYYWGQGTQVTVSS | low polyreactivity |
| QVQLVESGGGLVQAGGSLRLSCAASGSILGYYAMRWYRQAPGKDRELVAAISSGGSTNYADSVKGRFTISRDNAKNTVYLQMNSLKPEDTAVYYCAADRTYHGGFDYWGLGTQVTVSS | low polyreactivity |
| QVQLVESGGGLVQAGGSLRLSCAASGSILHAYALGWYRQAPGTERELVAAINWSGGSTYYADSVKGRFTISRDNAKNTVYLQMNSLKPEDTAVYYCAKVWRYGRYEYGYWGQGTQVTVSS | high polyreactivity |
| QVQLVESGGGLVQAGGSLRLSCAASGSILIYNAMGWYRQAPGKERELVAGISRRGASTYYADSVKGRFTISRDNAKNTVYLQMNSLKPEDTAVYYCAALGKYIVAWAGDYWGQGTQVTVSS | low polyreactivity |

Source: the nanobody polyreactivity screen of Harvey et al. (2022)
